B1: N-terminal Rad9 CAD region (yeast two-hybrid fusion) [S. cerevisiae] / Chk1 (yeast two-hybrid fusion) [S. cerevisiae] (parent)
chain 1: MSGQLVQWKSSPDRVTQSAIKEALHSPLADGDMNEMNVPVDPLENKVNSTNIIEGSPKANPNPVKFMNTSEIFQKSLGLLDESPRHDDELNIEVGDNDRPNANILHNERTPDLDRIANFFKSNRTPGKENLLTKYQSSDLEDTPLMLRKKMTFQTPTDPLEQKTFKKLKSDTGFCYYGEQNDGEENASLEVTEADATFVQMAERSADNYDCALEGIVTPKRYKDELSKSGG
chain 2: MSLSQVSPLPHIKDVVLGDTVGQGAFACVKNAHLQMDPSIILAVKFIHVPTCKKMGLSDKDITKEVVLQSKCSKHPNVLRLIDCNVSKEYMWIILEMADGGDLFDKIEPDVGVDSDVAQFYFQQLVSAINYLHVECGVAHRDIKPENILLDKNGNLKLADFGLASQFRRKDGTLRVSMDQRGSPPYMAPEVLYSEEGYYADRTDIWSIGILLFVLLTGQTPWELPSLENEDFVFFIENDGNLNWGPWSKIEFTHLNLLRKILQPDPNKRVTLKALKLHPWVLRRASFSGDDGLCNDPELLAKKLFSHLKVSLSNENYLKFTQDTNSNNRYISTQPIGNELAELEHDSMHFQTVSNTQRAFTSYDSNTNYNSGTGMTQEAKWTQFISYDIAALQFHSDENDCNELVKRHLQFNPNKLTKFYTLQPMDVLLPILEKALNLSQIRVKPDLFANFERLCELLGYDNVFPLIINIKTKSNGGYQLCGSISIIKIEEELKSVGFERKTGDPLEWRRLFKKISTICRDIILIPN

Variants of B1 are the subject of this assay. The assay is described as follows: yeast two-hybrid (β-galactosidase activity). Conditions: with Chk1 (yeast two-hybrid fusion) [S. cerevisiae]; parent: 1; read off a plot.
As to chain 1 S11A S26A S56A S83A T110A T125A T143A T218A, the response was 0.28 AU.

Take chain 1 S11A S26A S56A S83A T110A T125A T155A T218A: the response was 0.8 AU.

As to chain 1 S11A S26A S83A T110A T125A T143A T155A T218A, the response was determined as 0.18 AU.

For the variant chain 1 S11A S26A S56A S83A T110A T125A T143A T155A, the response came out at 0.15 AU.

With chain 1 S26A S56A S83A T110A T125A T143A T155A T218A, the response worked out at 0.22 AU.

For chain 1 S11A S26A S56A S83A T125A T143A T155A T218A, the response is 0.2 AU.

As to chain 1 S11A S56A S83A T110A T125A T143A T155A T218A, the response was 0.14 AU.

Regarding chain 1 S11A S26A S56A T110A T125A T143A T155A T218A, the response came out at 0.18 AU.

Turning to chain 1 S11A S26A S56A S83A T110A T143A T155A T218A, the response amounted to 0.59 AU.

On to chain 1 S11A S26A S56A S83A T110A T125A T143A T155A T218A, for which the response worked out at 0.07 AU.
